In patent US6998239 (dated 2006):

Target: T1, human CCX CKR with N-terminal Flag epitope, stably expressed on HEK293 cells (UniProt Q9NPB9 1-350)
T1 chain: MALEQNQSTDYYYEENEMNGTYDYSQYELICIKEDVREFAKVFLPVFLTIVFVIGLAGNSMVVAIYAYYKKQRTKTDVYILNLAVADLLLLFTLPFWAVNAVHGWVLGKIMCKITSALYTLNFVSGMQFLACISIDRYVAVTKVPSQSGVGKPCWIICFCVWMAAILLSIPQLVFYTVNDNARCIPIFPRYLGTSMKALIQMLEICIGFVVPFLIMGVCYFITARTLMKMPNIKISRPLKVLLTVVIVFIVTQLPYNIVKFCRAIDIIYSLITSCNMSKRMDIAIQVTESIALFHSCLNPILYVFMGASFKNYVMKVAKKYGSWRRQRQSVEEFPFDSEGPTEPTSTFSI
Test: 125I-ELC competition binding

B1: murine TECK (ligand)
chain: QGAFEDCCLGYQHRIKWNVLRHARNYHQQEVSGSCNLRAVRFYFRQKVVCGNPEDMNVKRAMRILTARKRLVHWKSASDSQTERKKSNHMKSKVENPNSTSVRSATLGHPRMVMMPRKTNN
IC50: 2 nM

B2: human SLC (secondary lymphoid-tissue chemokine) (ligand)
chain: SDGGAQDCCLKYSQRKIPAKVVRSYRKQEPSLGCSIPAILFLPRKRSQAELCADPKELWVQQLMQHLDKTPSPQKPAQGCRKDRGASKTGKKGKGSKGCKRTERSQTPKGP
IC50: 12 nM

B3: murine SLC (ligand)
chain: SDGGGQDCCLKYSQKKIPYSIVRGYRKQEPSLGCPIPAILFSPRKHSKPELCANPEEGWVQNLMRRLDQPPAPGKQSPGCRKNRGTSKSGKKGKGSKGCKRTEQTQPSRG
IC50: 4 nM

B4: murine ELC (ligand)
chain: GANDAEDCCLSVTQRPIPGNIVKAFRYLLNEDGCRVPAVVFTTLRGYQLCAPPDQPWVDRIIRRLKKSSAKNKGNSTRRSPVS
IC50: 1 nM

B5: MCP-3 (ligand)
chain: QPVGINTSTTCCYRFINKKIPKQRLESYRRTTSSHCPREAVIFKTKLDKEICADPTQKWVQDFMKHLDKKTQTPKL
IC50: > 2000 nM

B6: human ELC (EBI1 ligand chemokine) (ligand)
chain: GTNDAEDCCLSVTQKPIPGYIVRNFHYLLIKDGCRVPAVVFTTLRGRQLCAPPDQPWVERIIQRLQRTSAKMKRRSS
modifications: 125I label where used as radioligand
IC50: 6 nM

B7: vMIPII (viral macrophage inflammatory protein II) from human Kaposi's sarcoma herpesvirus HHV8 (ligand)
chain: LGASWHRPDKCCLGYQKRPLPQVLLSSWYPTSQLCSKPGVIFLTKRGRQVCADKSKDWVKKLMQQLPVTAR
IC50: 90 nM

B8: mMIP-1gamma (murine macrophage inflammatory protein 1 gamma) (ligand)
chain: QITHATETKEVQSSLKAQQGLEIEMFHMGFQDSSDCCLSYNSRIQCSRFIGYFPTSGGCTRPGIIFISKRGFQVCANPSDRRVQRCIERLEQNSQPRTYKQ
IC50: 70 nM

B9: human TECK (thymus expressed chemokine) (ligand)
chain: QGVFEDCCLAYHYPIGWAVLRRAWTYRIQEVSGSCNLPAAIFYLPKRHRKVCGNPKSREVQRAMKLLDARNKVFAKLHHNTQTFQAGPHAVKKLSSGNSKLSSSKFSNPISSSKRNVSLLISANSGL
modifications: 125I label where used as radioligand
IC50: 7 nM
